Laboratory results as given in US20240366663A1.

Target: CD20 (UniProt P11836)
Test: cell-based or functional assay

Sequence of UniProt P11836 (P11836 whole entry): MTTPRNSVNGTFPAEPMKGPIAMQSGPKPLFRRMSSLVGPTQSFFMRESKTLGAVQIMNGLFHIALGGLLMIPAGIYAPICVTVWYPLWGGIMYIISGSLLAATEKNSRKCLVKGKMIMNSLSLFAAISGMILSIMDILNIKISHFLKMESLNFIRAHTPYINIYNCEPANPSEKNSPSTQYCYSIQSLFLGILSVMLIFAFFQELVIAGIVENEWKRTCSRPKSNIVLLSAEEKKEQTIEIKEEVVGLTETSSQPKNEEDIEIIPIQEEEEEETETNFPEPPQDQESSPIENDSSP

Substance | EC:50 of percent specific lysis of ARH-77 cells, 4 h caspase assay, AB-202 + 0.01 µg/mL Obinutuzumab | EC:50 of percent specific lysis of ARH-77 cells, 4 h caspase assay, AB-202 + 0.1 µg/mL Obinutuzumab | EC:50 of percent specific lysis of ARH-77 cells, 4 h caspase assay, AB-202 + 1 µg/mL Obinutuzumab | EC:50 of percent specific lysis of ARH-77 cells, 4 h caspase assay, CBNK + 0.01 µg/mL Obinutuzumab | EC:50 of percent specific lysis of ARH-77 cells, 4 h caspase assay, CBNK + 0.1 µg/mL Obinutuzumab | EC:50 of percent specific lysis of ARH-77 cells, 4 h caspase assay, CBNK + 1 µg/mL Obinutuzumab | fold increase of AB-202 killing activity on ARH-77 cells with 1 µg/mL Obinutuzumab versus no antibody | fold increase of CBNK killing activity on ARH-77 cells with 1 µg/mL Obinutuzumab versus no antibody | EC:50 of percent specific lysis of ARH-77 cells, 4 h caspase assay, AB-202 + 0.1 µg/mL Rituximab | EC:50 of percent specific lysis of ARH-77 cells, 4 h caspase assay, AB-202 + 1 µg/mL Rituximab | EC:50 of percent specific lysis of ARH-77 cells, 4 h caspase assay, CBNK + 0.01 µg/mL Rituximab | EC:50 of percent specific lysis of ARH-77 cells, 4 h caspase assay, CBNK + 0.1 µg/mL Rituximab | EC:50 of percent specific lysis of ARH-77 cells, 4 h caspase assay, CBNK + 1 µg/mL Rituximab
Obinutuzumab (antibody) | 1.21 | 1.05 | 0.97 | 2.99 | 0.85 | 0.37 | 2.9 fold | 66.5 fold | – | – | – | – | –
Rituximab (antibody) | – | – | – | – | – | – | – | – | 1.56 | 1.49 | 11 | 3.25 | 2.39
